In the supplement of paper PMC12764529:
± gives the half width of the 95% confidence interval.

What was measured:
[1] = folding stability dG unfold from trypsin proteolysis; higher = more stable
Outline: (§1)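 How resistant each design was to proteolysis was captured as K50, inferred by Bayesian fitting of sequencing counts. Unfolding free energy was then derived relative to a sequence-predicted unfolded-state K50 and a shared folded-state K50, per protease or combined. Digestion used trypsin and chymotrypsin at 11 threefold-diluted concentrations plus a no-protease condition, on mini-proteins under 80 residues without cysteine in a PA-tagged cDNA display construct. Designs were kept only when AlphaFold2 dimer inter-PAE was above 15.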

[2] = folding stability dG unfold from chymotrypsin proteolysis; higher = more stable
Outline: as §1

[3] = folding stability dG unfold (combined trypsin and chymotrypsin); higher = more stable
Outline: as §1

| Sequence | folding stability dG unfold [1] [kcal/mol] | folding stability dG unfold [2] [kcal/mol] | folding stability dG unfold [3] [kcal/mol] |
| --- | --- | --- | --- |
| SAGGNKEHKVTLEIYIMMWPDPDNGQPYPMPLEIEAPYKNNDPEAAEADIKELLKEIPIPPWMKDMISAGGS [r16_40_TrROS] | 1.19 ± 0.12 | 0.692 ± 0.15 | 0.988 ± 0.39 |
| SAGGNMWEQIRMIVRELAKEGHPWITFDKIHKELGRPITPEWREWLRDAGFIEHDPNGSMTFRIPPGASAGG [r13_188_TrROS] | 1.36 ± 0.032 | 0.89 ± 0.1 | 1.17 ± 0.056 |
| SAGGNPASATVTINEDILVNGSPEEARALVEARAKAEGITITDVTITPVPGDPSVYRVSATFSKTLASAGGS [r8_479_JUSTAS] | 1.91 ± 0.038 | 1.9 ± 0.1 | 1.87 ± 0.15 |
| SAGGNRIMFFFDTPEQAREIAKELAKNFPGYKLDVEVHTQEMKVKDPDNGEEQRYPMVMVEIEIKPPSAGGS [r16_828_TrROS] | 1.6 ± 0.049 | 1.44 ± 0.13 | 1.52 ± 0.17 |
| SAGGNWKIRNPKNGRTIEIDNFNPGNGMFRVKVWNPNGNKEEHPIPGSLEEILEFLQKKGWPVEIERSAGGS [r16_748_TrROS] | 0.27 ± 0.21 | 0.888 ± 0.2 | 0.626 ± 0.23 |
| SAGGNWPMRIKIEDPGEEKTIPIPITKVEPNPPPGKLMIFWPDGWVLTFDPKNWRIKKIEPMPDPDEMSAGG [r13_636_TrROS] | 0.942 ± 0.084 | 0.822 ± 0.13 | 1.05 ± 0.37 |
| SAGGNWRIRVKIEGPDGKTVNHWFWIPNLEDLLSFIQSQPGPKIKDVEIEPPPKDKQYYIPFTMTIPPSAGG [r13_796_TrROS] | 1.72 ± 0.031 | 1.87 ± 0.11 | 1.8 ± 0.11 |
| SAGGPDDMKIIEETTIRFPENGMQFNIRIYKLPDNDVFIEAEMIMPNGKPVGRMEARVPNGKPIEIPFSAGG [r13_573_TrROS] | 0.854 ± 0.04 | 1.64 ± 0.12 | 1.36 ± 0.087 |
| SAGGPDLVPVARAVYRIDVPPDRTAEEVRREIEERLRPLGVRRVVVPVFYDPERGYLLVVAEVYRSPEESAG [r5_924_TrMRF] | 1.82 ± 0.036 | 2.17 ± 0.1 | 2.06 ± 0.081 |
| SAGGPEIRLRVRRPVRLTRRELLPDGTWRTLPARPGYEELEITFTGPEETARRLREELERLGYEVEEVSAGG [r13_452_TrMRF] | 1.76 ± 0.056 | 2.84 ± 0.066 | 2.44 ± 0.12 |
| SAGGPEIVKLDFTLDPNGNLVFTFELKDGTKYEIKINPENPTIEIKEIEKIEPKPIPEDDPELLKEKSAGGS [r16_482_TrMRF] | 1.54 ± 0.17 | 3.24 ± 0.059 | 2.49 ± 0.78 |
| SAGGPENARPVTFTVTLPDGDVVPITVTEHPDGTVTVTVTVLRFDGAEPVPATATITVPAEVVRRLFSAGGS [r16_470_TrMRF] | 2.15 ± 0.035 | 2.636 ± 0.023 | 2.48 ± 0.034 |
| SAGGPEVKILSKSYNPEKNTVTYNLEVYYGGKKYGALAEIHYDPKTGKYTITVYYPDKPDYKETLTFNSAGG [r13_615_TrMRF] | 1.91 ± 0.077 | 3.03 ± 0.079 | 2.58 ± 0.21 |
| SAGGPEVVLTVTVKVPPEMTPEEVAQRLADELRKKYPDLKVEVVSVEYDEETKEVTVTIRVTYAPPPSAGGS [r8_26_TrROS_Hall] | 4.97 ± 0.64 | 4.05 ± 0.16 | 4.45 ± 0.14 |
| SAGGPFRIEDISIQRDPDNGKLTIIIPFPAPPGQEIKIKVRDPGNGKEKKFDMKVEPLPNGYLTMTISAGGS [r8_195_TrROS] | 1.82 ± 0.14 | 2.17 ± 0.11 | 1.91 ± 0.21 |
| SAGGPFYLRIKIVDEDGKEITYMFPAPADEAEEEIEELLPGWPLKIDEVERFPGEPGYIMVTIKIPPNSAGG [r13_832_TrROS] | 1.63 ± 0.051 | 2.07 ± 0.17 | 1.97 ± 0.12 |
| SAGGPGEEYKHPNGMAMRRDPENGKVEMRKVPPIPIEIKIEIDPALGWIRLSITIPNGKKIEFTFPFSAGGS [r16_453_TrROS] | 2.36 ± 0.052 | 4.11 ± 0.32 | 3.32 ± 0.2 |
| SAGGPGMKMEPIAQIEFPGGRKITIHRMEMPNGNKMVNVNIMNPNGKTKTVMVPMGDIDEAIDALKLSAGGS [r16_588_TrROS] | 1.65 ± 0.036 | 1.04 ± 0.07 | 1.29 ± 0.12 |
| SAGGPGTREVEITIPADELREEHPNLTDEELVEEVMELARGIAQEQGYPIKKVDITHDKDGWVTIKLSAGGS [r8_368_TrROS] | 0.383 ± 0.091 | 0.152 ± 0.11 | 0.322 ± 0.16 |
| SAGGPGWQRIAKWEIPLPNGKDITIEPYYVNPNNNHYMYEIEIGDGKEIPFWVPPGDSPEDALDAILKSAGG [r13_470_TrROS] | -0.194 ± 0.2 | -0.126 ± 0.32 | -0.118 ± 0.16 |
| SAGGPGWRTINIPVWFKPGDSLDEIEEKARELVDPIADRNGLDIEVNIEVERDPDGYYRFNVQITVPSAGGS [r16_279_TrROS] | 1.27 ± 0.097 | 2.34 ± 0.071 | 1.96 ± 0.13 |

| Sequence | folding stability dG unfold [1] [kcal/mol] | folding stability dG unfold [2] [kcal/mol] | folding stability dG unfold [3] [kcal/mol] |
| --- | --- | --- | --- |
| SAGGPITITIKTKNGKELELKLPGIRSVQFNPDSVWIAFKFPDQYIMIQINPPNGKIMIQIMPPGQPISAGG [r13_392_TrROS] | 2.47 ± 0.097 | 3.66 ± 0.053 | 3.18 ± 0.14 |
| SAGGPKITIMWPEGMPPEELENFLKKLNPNYKVEYRPMPPEDMKDMPPGDVVISIPFDGRYWYLRIKPSAGG [r13_649_TrROS] | 1.65 ± 0.048 | 1.99 ± 0.095 | 1.88 ± 0.081 |
| SAGGPKKITIHITEMYRNKNGPYYYRVEIRDGGKPKEYNFPFDSPDEMLDNIEKLADELGLKVEIEPFSAGG [r13_750_TrROS] | 1.55 ± 0.06 | 2.16 ± 0.16 | 1.88 ± 0.22 |
| SAGGPKWVIIIEIEIKPKNNGKEFEFTFVFPPGQTLDEIKSFIKEFAPPGHKVELKIEDIQLVPPDDSAGGS [r16_393_TrROS] | 2.2 ± 0.15 | 2.41 ± 0.039 | 2.4 ± 0.12 |
| SAGGPLGNLTLDQIVDLVREAFPDLPVRVDVEPIDEETGYVRVTVEPPLPNGGTARAEFILPILPDDSAGGS [r16_564_TrMRF] | 0.787 ± 0.019 | 1.26 ± 0.066 | 1.07 ± 0.076 |
| SAGGPLQIKVEPLNRDPKDGKREVRIEITFPEEDMKKNPENRQLAEYIAKSLAKEPGADKVEVDIHWSAGGS [r16_416_TrROS] | -0.0287 ± 0.056 | 0.441 ± 0.081 | 0.274 ± 0.095 |
| SAGGPLRIHISIENPNGKTLTYQIPLPPGDPEEAVKEIADEMKERGGTITSIEIENGVITITVRIPPSAGGS [r16_662_TrROS] | 2.32 ± 0.059 | 2.97 ± 0.046 | 2.8 ± 0.075 |
| SAGGPLTEEQLKEQAKQIKDQLAKEFADMNGFPVTEIDDVEVVPDGWISIEIEYPGMGMPYTITIPWSAGGS [r16_622_TrROS] | 0.887 ± 0.053 | 1.02 ± 0.16 | 1.02 ± 0.095 |
| SAGGPNIRIDINLMPHPGKPYIMVRIEIPNGYKREIMFNPDDGKISIEIRYPGKEEKIEFPLDDIKPISAGG [r13_328_TrROS] | 3.48 ± 0.5 | 4.7 ± 0.3 | 4.42 ± 0.32 |
| SAGGPNKPIKIKIMIWRDPGGWYIAIRIPDGNTRMFKSPEQIKSILEKFPGLKIDEIEIIPPDQMKKLSAGG [r13_730_TrROS] | 1.7 ± 0.025 | 2.23 ± 0.073 | 2 ± 0.079 |
| SAGGPNWMQMEIWLPPGNPEKIEKIIRDKGWKVEDIKVKEVNPNNGWMRVTIYMPGPWPMDEIKEAVRSAGG [r13_725_TrROS] | 1.96 ± 0.11 | 3.6 ± 0.16 | 3.15 ± 0.25 |
| SAGGPNWYLKVKIEHRYPNPDNGKWQERRMEVIIPFKDPDQLPPNALKKLIDIMQPMGFRVDVELFPWSAGG [r13_926_TrROS] | 3.19 ± 0.23 | 3.99 ± 0.12 | 3.76 ± 0.28 |
| SAGGPPEGEKKKFRIDDVQPMPNPNGYFMVQIRYNDKPVSSIPIPPNNLDKLANDLPPGMEVEIYPFSAGGS [r8_41_TrROS] | 0.06 ± 0.11 | 0.511 ± 0.19 | 0.369 ± 0.21 |
| SAGGPPFKIKEINIQYNPDAGYVTMTFTFDDGATVEAMISPEEGRIPGKVEVPGKEIEHEFEIPVPPSAGGS [r8_363_TrROS] | 1.4 ± 0.041 | 1.5 ± 0.099 | 1.38 ± 0.19 |
| SAGGPPGDPILLRISYTIRPNGKERTMDHEIPFKNPNQPITLEQIRKELRDALPPGYKITDVEIDVLSAGGS [r16_407_TrROS] | 0.364 ± 0.069 | 0.276 ± 0.16 | 0.444 ± 0.1 |
| SAGGPPGEEIPIMVRIKMRNPENGEEMELPITHTVKSKEDLKWAKKLVDEIAEEFREQGMKDVEIEIFSAGG [r13_360_TrROS] | 0.47 ± 0.15 | 1.07 ± 0.21 | 0.908 ± 0.15 |
| SAGGPPPDTTVTVTLTRTTPTQWLIEFPATGEVREIPRDPAASDEEAKELVKELAKEEGYNVNINLTSAGGS [r16_446_JUSTAS] | 1.05 ± 0.081 | 0.438 ± 0.29 | 0.812 ± 0.3 |
| SAGGPPSVWIPIEINFPDSPEQLLEEVENAAQEIADLFGIPVKIEVERNPKKGYATIWIRVDGKTIPISAGG [r13_845_TrROS] | 1.66 ± 0.041 | 1.7 ± 0.11 | 1.71 ± 0.22 |
| SAGGPPVTIMIRLPPLQEQLPPEWLEKLKNIRVPNGHPIKDIDVQPHNGRWVIMIKVDSPEQARDIIRSAGG [r13_269_TrROS] | 1.66 ± 0.048 | 1.89 ± 0.053 | 1.75 ± 0.13 |
| SAGGPPYYMIKIRYPDNGKEYEIPPGIKVHRDPNNEVYIMFRSPAAADDLVDEIAPTNGLRVEIEPFSAGGS [r8_131_TrROS] | 0.945 ± 0.23 | 1.07 ± 0.24 | 0.915 ± 0.3 |
| SAGGPRITITYPLPPGDIEKIEKLAKEALDNGDNVDVNIPHPNGWYVTLTVDPPNGKIEEVEWQPPDKSAGG [r13_873_TrROS] | 0.571 ± 0.076 | 0.598 ± 0.061 | 0.499 ± 0.12 |
